Reference: US10788499B2, “Methods for assaying palmitoyl protein thioesterase 1 and tripeptidyl peptidase activity in dried blood spots for detection of neuronal ceroid lipofuscinoses in newborns” (University of Washington, priority 2015, dated 2020)
Blank lines part the entries; values can stand above or below the molecule they belong to. Ends that are not written are not given here. * marks the point of attachment. Lauroyl = CCCCCCCCCCCC(=O)*

How the values were obtained:
[1] = target: T1, palmitoyl protein thioesterase 1 (PPT1) (Homo sapiens, UniProt P50897); assay: PPT1 assay in dried blood spots with synthetic substrate, tandem mass spectrometry (SRM); type: biochemical
T1 construct: from tissue; host or cells: dried blood spots from human newborns, NCL patients and a healthy adult control
T1 sequence (P50897 28-306): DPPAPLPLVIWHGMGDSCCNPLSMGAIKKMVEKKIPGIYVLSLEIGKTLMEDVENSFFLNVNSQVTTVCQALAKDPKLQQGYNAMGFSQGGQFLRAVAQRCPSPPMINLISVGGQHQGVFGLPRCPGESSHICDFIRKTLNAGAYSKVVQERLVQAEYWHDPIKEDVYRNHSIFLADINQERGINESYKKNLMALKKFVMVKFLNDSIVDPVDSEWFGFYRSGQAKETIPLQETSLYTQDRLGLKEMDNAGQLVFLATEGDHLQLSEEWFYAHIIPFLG
Procedure: (§1) Electrospray-MS/MS was carried out on a Waters Quattro Micro tandem quadrupole (quadrupole-hexapole-quadrupole) instrument using a positive ionization mode and selected reaction monitoring (SRM). Samples (10 μL) were flow-injected with an autosampler in an acetonitrile/water (v/v=80:20) solution containing 0.1% formic at a flow rate of 0.2 mL/min. The mass spectrometer settings were as follows: Capillary voltage 3.5 kV; cone 35 V; extractor 2.0 V; RF lens, 0.2 V; source temperature, 120° C.; desolvation temperature, 250° C.; cone gas flow, 50 L/h; desolvation gas flow, 500 L/h; LM 1 resolution, 14.8; HM 1 resolution, 14.8; ion energy 1, 0.2 eV; entrance, 2 V; collision, 25 eV; exit, 15 V; LM 2 resolution, 14.8; HM 2 resolution, 14.8; ion energy 2, 1.0 eV; multiplier, 650 V; gas cell Pirani pressure, 2.21×10^−3 mbar; dwell time 100 ms. Shorter dwell times (10 ms) were also investigated on the Quattro Micro instrument but led to increased coefficients of variation (CV) for intra-assay measurements from 1.5% at 100 ms to 4% at 10 ms, all for triplicate injections. The precursor ion-fragment ion SRM transitions for the PPT1 assays were monitored at m/z 762.5→m/z 423.5 and m/z 678.4→m/z 423.4 for PPT1-P and PPTI-IS, respectively, corresponding to the formation of the abundant y4 fragment ion of the peptide (FIGS. 1A and 1B). The SRM transitions for the TPP1 assays were monitored at m/z 308.3→m/z 208.3 and m/z 317.3→m/z 209.3 for TPP1-P and TPP1-IS, respectively, as shown in FIG. 2.
A 3-mm punch of a dried blood spot was placed in a 1.5 mL polypropylene tube (Eppendorf) and 100 μL of 100 mM phosphate buffer solution (pH 7) containing 46 nmol of PPT1 substrate (PPT1-S, FIG. 5 (left)) and 2.6 nmol of PPT1 internal standard (PPT1-IS) and 0.08% v/v Triton X-100 (ACROS, Cat #21568) was added. The solution was then vortexed briefly and incubated for 10 h at 37° C. in a thermostated air shaker at 250 rpm. After the incubation period was over, the sample was placed in an ice bath and the reaction was quenched by addition of 300 μL of ethyl acetate and 100 μL of deionized water. […]

[2] = Non-enzymatic hydrolysis of substrate in blank (absence of DBS), pH dependence; type: physicochemical
Text: The PPT1 activity is known to have an optimum activity at pH 7 when acting on the natural substrate. […] The production of TPP-P by non-enzymatic hydrolysis in the blank sample at pH 4 was ca. 15 fold lower than that due to TPP1 activity in the DBS.

[3] = Incubation of synthetic PPT1-P in assay buffer with DBS (digestion by proteolytic enzymes in rehydrated DBS); type: in vitro ADME, human; details: 18 h
Procedure: The leveling-off effect can be in part due to enzymatic digestion of PPT1-P by proteolytic enzymes in rehydrated DBS. This was checked by incubating synthetic PPT1-P in the assay buffer with DBS for 18 h. […] Since PPT1-P and PPT1-IS are similar hydrophobic peptides, it is safe to presume that their depletion will occur at similar rates and will not affect their molar ratio. […] Based on these measurements, the incubation time for both PPT1 and TPP1 was set at 10 h. The enzyme kinetics with respect to the synthetic substrates was established through Michaelis-Menten plots which were fitted to obtain the Km and Vmax values (FIGS. 12A and 12B). Each Michaelis-Menten curve was obtained from triplicate activity measurements over an appropriate substrate concentration range (0-500 μM and 0-300 μM). […] The measured Km were used to adjust the initial substrate concentrations in the assays to ≥2 Km value, e.g. 0.46 and 0.40 mM for PPT1-S and TPP1-S, respectively.

[4] = target: T2, tripeptidyl peptidase 1 (TPP1) (Homo sapiens, UniProt O14773); assay: TPP1 assay in dried blood spots with synthetic substrate, tandem mass spectrometry (SRM); type: biochemical
T2 construct: from tissue; host or cells: dried blood spots from human newborns, NCL II patients and a control
T2 sequence (O14773 196-563): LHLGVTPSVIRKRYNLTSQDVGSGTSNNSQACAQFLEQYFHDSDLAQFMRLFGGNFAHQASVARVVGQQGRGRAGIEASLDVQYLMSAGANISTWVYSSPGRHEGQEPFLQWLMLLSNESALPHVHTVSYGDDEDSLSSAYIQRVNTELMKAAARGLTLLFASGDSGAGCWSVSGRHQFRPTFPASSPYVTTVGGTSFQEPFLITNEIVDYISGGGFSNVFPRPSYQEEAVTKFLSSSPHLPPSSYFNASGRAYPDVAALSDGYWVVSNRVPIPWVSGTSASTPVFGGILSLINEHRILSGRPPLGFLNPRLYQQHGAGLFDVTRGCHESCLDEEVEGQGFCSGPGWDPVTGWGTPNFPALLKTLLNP
Procedure: as §1
TPP1 substrate solution was prepared by dissolving 5 mg TPP1 substrate (FIG. 5 (right)) in 1.5 mL of dimethyl sulfoxide (DMSO). 1 mg TPP1 IS was dissolved in 1.5 mL of assay buffer, which contained 0.15 M NaCl and 0.1 M sodium acetate buffer at pH 4.0. This concentrated TPP1 IS solution was further diluted with stock assay buffer to make a 300 μM IS solution. The assay cocktail was a 100 μL mixture composed of 7.2 μL of substrate solution (40 nmol), 5 μL of 300 μM IS solution (1.5 nmol) and additional 87.8 μL of stock assay buffer. […]

[5] = target: T3, palmitoyl protein thioesterase (Homo sapiens, UniProt P50897); assay: Simplex PPT1 assay (C12 thioester substrate) carried out with recombinant palmitoyl protein thioesterase, LC-MS/MS; type: biochemical; details: 2 μL recombinant PPT1 enzyme, 0.6 mM C12 thioester substrate, pH 6.75
T3 sequence (P50897 28-306): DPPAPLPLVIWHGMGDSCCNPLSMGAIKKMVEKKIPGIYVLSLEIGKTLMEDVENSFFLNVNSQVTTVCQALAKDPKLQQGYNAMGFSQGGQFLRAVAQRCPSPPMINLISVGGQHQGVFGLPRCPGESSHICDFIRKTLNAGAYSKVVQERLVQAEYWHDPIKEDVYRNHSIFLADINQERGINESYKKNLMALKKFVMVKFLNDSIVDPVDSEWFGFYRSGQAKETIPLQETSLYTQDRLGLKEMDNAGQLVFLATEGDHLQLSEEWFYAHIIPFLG
Procedure: Assay cocktail: a substrate and internal standard stock solution (methanol solution) were pipetted into a vial and dried using a speed vacuum. After all the solvent is removed, the residue was diluted with assay buffer (0.1M phosphate citrate buffer, 0.08% Triton X-100 (or sodium taurocholate), 0.1 mM EDTA (or no EDTA) at pH=6.75) to a final concentration of 0.6 mM (substrate), 30 μM (Internal Standard), and mixed by vortexing.
[…] For the blank control, a 3.2 mm filter paper punch was placed in a vial. 30 μL of assay cocktail was added to each vial, which either includes dried blood spot (or filter paper blanks). The Eppendorf vial is shaken at 37° C. for 16 hrs using an orbital shaker (250 rpm)/incubator.
After the incubation, the assay is quenched with 100 μL of methanol/ethyl acetate=50/50 mixture, and then 400 μL of ethyl acetate, then 200 μL of 0.5M NaCl(aq), pipette up and down 10× times to mix well.
The sample tubes were then centrifuged at 3000 rpm for 5 minutes. 200 μL of upper layer solution (organic layer) was removed, and transferred to a new shallow plate. The solvent was evaporated under nitrogen gas flow, the remaining solid was reconstituted with 100 μL LC-MS solvent (55/45 water/acetonitrile with 0.1% formic acid). The solution was mixed up and down about 10 times with a pipettor.
The plate was placed on the autosampler of the LC-MS/MS for isocratic LC-MS/MS. […]

[6] = PPT1 in DBS, Michaelis-Menten fit, triplicate activity measurements
[7] = TPP1 in DBS, Michaelis-Menten fit, triplicate activity measurements

- product produced on average per one DBS ([1]; 10 h incubation): 4.7 nmol
- Km [1, 6]: 230 µM
- Vmax [1, 6]: 217.0 µmol/L/h
Molecule: N-Ac-Ala-Leu-Leu-Pro-Phe-Gly-Cys-S—COC11H23 (Ac-ALLPFGC(Lauroyl); also: S-acyl: name COC11H23, mods S-palmitoyl) [PPT1 substrate, cysteine terminated heptapeptide carrying an S-palmitoyl group]
- non-enzymatic hydrolysis of the thioester bond ([2]; between pH 7 and 8): substantially increased

Molecule: Ac-ALLPFGC [PPT1-P]
- decrease of PPT1-P compared to a control sample [3]: 25-27%

- product produced per DBS ([4]; 10 h incubation): 1.7 nmol/DBS
- Km [4, 7]: 53.3 µM
- Vmax [4, 7]: 46.0 µmol/L/h
- production of TPP-P by non-enzymatic hydrolysis in the blank sample, fold lower than that due to TPP1 activity in the DBS ([2]; pH 4): ca. 15 fold
Molecule: C[C@H](N)C(=O)N[C@@H](C)C(=O)N[C@@H](Cc1ccccc1)C(=O)NCc1ccc(C(=O)NCCCNC(=O)OC(C)(C)C)cc1 [TPP1 substrate]

- activity [5]: 40.4682 μmol/Lh
B1: recombinant PPT1 enzyme: recombinant palmitoyl protein thioesterase (protein, UniProt P50897 28-306, looked up)
Palmitoyl-protein …: DPPAPLPLVIWHGMGDSCCNPLSMGAIKKMVEKKIPGIYVLSLEIGKTLMEDVENSFFLNVNSQVTTVCQALAKDPKLQQGYNAMGFSQGGQFLRAVAQRCPSPPMINLISVGGQHQGVFGLPRCPGESSHICDFIRKTLNAGAYSKVVQERLVQAEYWHDPIKEDVYRNHSIFLADINQERGINESYKKNLMALKKFVMVKFLNDSIVDPVDSEWFGFYRSGQAKETIPLQETSLYTQDRLGLKEMDNAGQLVFLATEGDHLQLSEEWFYAHIIPFLG
